From the supplement of paper PMC7877785
± gives the uncertainty stated by the source.

Test: self-splicing fitness, log relative to wild type (ln ratio); higher = more splicing; Tetrahymena group I intron in knt gene, E. coli kanamycin selection, DiMSum; sequences stand for … in CUCUCU…GGAGGGAAAAGUUAUCAGGCAUGCACCUGGUAGCUAGUCUUUAAACCAAUAGAUUGCAUCGGUUUAAAAGGCAAGACCGUCAAAUUGCGGGAAAGGGGUCAACAGCCGUUCAGUACCAAGUCUCAGGGGAAACUUUGAGAUGGCCUUGCAAAGGGUAUGGUAAUAAGCUGACGGACAUGGUCCUAACCACGCAGCCAAGUCCUAAGUCAACAGAUCUUCUGUUGAUAUGGAUGCAGUUCACAGACUAAAUGUCGGUCGGGGAAGAUGUAUUCUUCUCAUAAGAUAUAGUCGGACCUCUCCUUAAUGGGAGCUAGCGGAUGAAGUGAUGCAACACUGGAGCCGCUGGGAACUAAUUUGUAUGCGAAAGUAUAUUGAUUAGUUUUGGAGUACUCGUGGUCG
Summary of the method: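 Six replicate transformations of E. coli BL21(DE3) with a pET-22b(+) library were grown overnight at 37°C or 30°C. The library randomised all eight P1ex-region intron nucleotides, the intron lying in the knt kanamycin-resistance gene, and plates were LB agar with or without 25 μg/mL kanamycin plus 100 μg/mL carbenicillin, 50 μM IPTG and 0.2% rhamnose. Pooled colonies were amplicon-sequenced on an Illumina HiSeq 2500, and fitness is the DiMSum error-weighted combination of wild-type-normalised replicate fold changes, kanamycin versus none.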

Row | Sequence | self-splicing fitness (ln) (30 °C) | self-splicing fitness (ln) (37 °C)
1 | CCCCAGCAAUAUUACGGGCU | -3.75 ± 0.17 | -2.32 ± 0.17
2 | AAGAAGCAAUAUUACGAGUA | -0.78 ± 0.26 | -1.44 ± 0.21
3 | CACGAGCAAUAUUACGGUCU | -3.44 ± 0.19 | -1.73 ± 0.16
4 | GCCAAGCAAUAUUACGUCUG | -3.62 ± 0.19 | -2.02 ± 0.16
5 | CACCAGCAAUAUUACGUACU | -3.08 ± 0.2 | -2.21 ± 0.2
6 | CCAAAGCAAUAUUACGCGAU | -3.16 ± 0.21 | -2.79 ± 0.28
7 | UUCGAGCAAUAUUACGGAUA | -2.76 ± 0.28 | -2.08 ± 0.25
8 | GCGGAGCAAUAUUACGGUUU | – | -2.53 ± 0.39
9 | AUUUAGCAAUAUUACGGGCG | -1.77 ± 0.12 | -0.764 ± 0.12
10 | GUGAAGCAAUAUUACGUCUA | 0.147 ± 0.049 | 0.251 ± 0.066
11 | CGUUAGCAAUAUUACGUACC | -1.39 ± 0.15 | -1.09 ± 0.18
12 | CGACAGCAAUAUUACGCAUU | -2.93 ± 0.15 | -2.03 ± 0.16
13 | AGACAGCAAUAUUACGACGG | -2.19 ± 0.14 | -1.86 ± 0.13
14 | CUCCAGCAAUAUUACGCUCA | -2.97 ± 0.17 | -2.31 ± 0.19
15 | GUGAAGCAAUAUUACGUGUG | -0.934 ± 0.089 | -0.737 ± 0.11
16 | GUCAAGCAAUAUUACGCCGA | -3.33 ± 0.45 | -1.08 ± 0.18
17 | AGGGAGCAAUAUUACGAUAG | -2.56 ± 0.23 | -2.66 ± 0.3
18 | CGUUAGCAAUAUUACGCAGU | – | -2.29 ± 0.37
19 | AUAGAGCAAUAUUACGGAAC | -3.66 ± 0.27 | -1.92 ± 0.24
20 | UGUAAGCAAUAUUACGCGUA | -0.832 ± 0.14 | -0.754 ± 0.15
21 | UCACAGCAAUAUUACGAUGU | -4.15 ± 0.29 | -1.77 ± 0.17
22 | AUAAAGCAAUAUUACGCGUG | -1.11 ± 0.067 | -0.15 ± 0.074
23 | CCCGAGCAAUAUUACGCUCG | -3.62 ± 0.22 | -2.92 ± 0.27
24 | UCCCAGCAAUAUUACGAAGU | -2.04 ± 0.1 | -1.14 ± 0.11
25 | UCACAGCAAUAUUACGGUUU | -2.56 ± 0.068 | -1.15 ± 0.067

Row | Sequence | self-splicing fitness (ln) (30 °C) | self-splicing fitness (ln) (37 °C)
26 | CAAUAGCAAUAUUACGCACA | -2.3 ± 0.12 | -1.4 ± 0.12
27 | AAUGAGCAAUAUUACGUUAG | -3.2 ± 0.21 | -2.3 ± 0.25
28 | AGAGAGCAAUAUUACGUCGU | -3.77 ± 0.32 | -1.78 ± 0.22
29 | ACUAAGCAAUAUUACGUAUA | -1.9 ± 0.13 | -0.679 ± 0.12
30 | AAGGAGCAAUAUUACGCAGG | -3.65 ± 0.32 | -2.22 ± 0.39
31 | AAACAGCAAUAUUACGCCGG | -2.36 ± 0.12 | -1.67 ± 0.12
32 | AAUGAGCAAUAUUACGCGGG | -3.11 ± 0.3 | -2.57 ± 0.25
33 | CUCUAGCAAUAUUACGGCUC | -3.83 ± 0.22 | -2.09 ± 0.21
34 | CCUAAGCAAUAUUACGAACA | -3.01 ± 0.29 | -1.96 ± 0.32
35 | UGGAAGCAAUAUUACGUAGG | -1.13 ± 0.067 | -1.05 ± 0.092
36 | CUGAAGCAAUAUUACGGAGC | – | -0.931 ± 0.49
37 | UUCUAGCAAUAUUACGUCCU | -1.87 ± 0.38 | -2.91 ± 0.36
38 | AGGAAGCAAUAUUACGUCAU | -3.32 ± 0.16 | -0.295 ± 0.12
39 | ACUAAGCAAUAUUACGUAAG | -1.05 ± 0.069 | -0.663 ± 0.089
40 | UAACAGCAAUAUUACGCUGU | -3.79 ± 0.16 | -2.62 ± 0.19
41 | GAACAGCAAUAUUACGACCG | -1.25 ± 0.14 | -0.315 ± 0.17
42 | AAAGAGCAAUAUUACGAAGA | -4.23 ± 0.46 | -1.64 ± 0.21
43 | GAUCAGCAAUAUUACGGCGC | -0.52 ± 0.11 | 0.0329 ± 0.14
44 | ACCAAGCAAUAUUACGGACA | -0.841 ± 0.068 | -0.38 ± 0.072
45 | GCAAAGCAAUAUUACGAGCG | -1.06 ± 0.077 | -0.631 ± 0.093
46 | AGACAGCAAUAUUACGCCCU | -0.687 ± 0.083 | 0.0722 ± 0.1
47 | CAGGAGCAAUAUUACGUCUA | -1.43 ± 0.13 | -1.68 ± 0.14
48 | ACGCAGCAAUAUUACGCGAA | -2.4 ± 0.15 | -1.2 ± 0.13
49 | AAUGAGCAAUAUUACGAUGC | -2.44 ± 0.21 | –
